Experimental data published in US20230125561A1 (PNEUMAGEN, published 2023).

Assays:
[1] = target: T1, recombinant human ACE2 (Angiotensin-converting enzyme 2) (human, UniProt Q9BYF1 18-740); assay: ELISA: ACE2 immobilised at 1 µg/mL, Neumifil titrated, detected with rabbit anti-Neumifil and HRP anti-rabbit IgG, 4PL fit
T1 construct: Bought recombinant protein

[2] = target: T2, SARS-CoV-2 Spike S1 protein, Wuhan (Wuhan-Hu-1, Dec 2019 isolate) (SARS-CoV-2, UniProt P0DTC2 16-685); assay: ELISA: Spike S1 immobilised at 1 µg/mL, Neumifil titrated, detected with rabbit anti-Neumifil and HRP anti-rabbit IgG, 4PL fit
T2 construct: domain: S1; also called original Spike protein

T1 sequence (Q9BYF1 18-740 limits assumed): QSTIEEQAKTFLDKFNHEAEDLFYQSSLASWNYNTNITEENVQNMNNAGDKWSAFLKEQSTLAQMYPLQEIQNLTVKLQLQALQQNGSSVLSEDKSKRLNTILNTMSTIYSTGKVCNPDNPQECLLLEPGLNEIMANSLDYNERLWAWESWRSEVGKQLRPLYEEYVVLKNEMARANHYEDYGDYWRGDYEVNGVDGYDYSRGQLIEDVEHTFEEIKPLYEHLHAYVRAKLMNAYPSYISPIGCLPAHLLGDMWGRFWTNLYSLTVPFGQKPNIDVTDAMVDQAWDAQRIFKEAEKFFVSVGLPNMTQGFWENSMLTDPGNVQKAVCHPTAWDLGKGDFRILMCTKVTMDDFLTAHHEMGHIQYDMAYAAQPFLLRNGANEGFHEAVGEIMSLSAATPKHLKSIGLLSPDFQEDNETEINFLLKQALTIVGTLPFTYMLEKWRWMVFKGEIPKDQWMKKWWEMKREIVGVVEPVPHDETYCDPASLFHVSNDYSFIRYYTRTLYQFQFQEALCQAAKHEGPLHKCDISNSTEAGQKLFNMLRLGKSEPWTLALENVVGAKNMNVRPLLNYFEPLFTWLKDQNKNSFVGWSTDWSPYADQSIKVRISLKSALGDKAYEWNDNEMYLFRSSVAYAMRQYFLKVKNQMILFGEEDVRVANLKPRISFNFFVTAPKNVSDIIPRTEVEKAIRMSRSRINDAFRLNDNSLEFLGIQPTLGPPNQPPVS

B1: Neumifil (HEX17: trimeric (hexavalent) form based on S. pneumoniae CBM40) (designed binder)
chain: GAMVIEKEDVETNASNGQRVDLSSELDKLKKLENATVHMEFKPDPKAPAFYNLFSVSSATKKDEYFTMAVYNNTATLEGRGSDGKQFYNNYNDAPLKVKPGQWNSVTFTVEKPTAELPKGRARLYVNGGLSRTSLRSGNFIKDMPDVTHVQIGATKRANNTVWGSNLQIRNLTVYNRALTPEEVQKRSGGGSGVIEKEDVETNASNGQRVDLSSELDKLKKLENATVHMEFKPDPKAPAFYNLFSVSSATKKDEYFTMAVYNNTATLEGRGSDGKQFYNNYNDAPLKVKPGQWNSVTFTVEKPTAELPKGRARLYVNGGLSRTSLRSGNFIKDMPDVTHVQIGATKRANNTVWGSNLQIRNLTVYNRALTPEEVQKRSGGSLGVPDFESDWFDVSSNSLYTLSHGLQRSPRRVVVEFARSSSPSTWNIVMPSYFNDGGHKGSGAQVEVGSLNIKLGTGAAVWGTGYFGGIDNSATTRFATGYYRVRAWI
notes: also called CBM2
- EC50 [1]: 0.235 µg/mL
- EC50 [2]: 0.174 µg/mL
